T1: human recombinant PLA2G5 (Homo sapiens, UniProt P39877)
T1 construct: purchased Cayman chemical 10009563
T1 sequence (P39877 21-138): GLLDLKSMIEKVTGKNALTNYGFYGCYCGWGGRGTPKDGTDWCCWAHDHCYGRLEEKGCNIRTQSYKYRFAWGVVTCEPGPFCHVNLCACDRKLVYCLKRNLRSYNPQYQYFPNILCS

B1: rPLA2G5: human recombinant PLA2G5 (Cayman chemical, 10009563) (protein, UniProt P39877 21-138, looked up)
Phospholipase A2 group V: GLLDLKSMIEKVTGKNALTNYGFYGCYCGWGGRGTPKDGTDWCCWAHDHCYGRLEEKGCNIRTQSYKYRFAWGVVTCEPGPFCHVNLCACDRKLVYCLKRNLRSYNPQYQYFPNILCS

Tests used:
[1] = target: T1, human recombinant PLA2G5; test: In vitro erythrocyte lysis assay with varespladib; type: cell-based; settings: 100 nM of varespladib; PS-exposing erythrocytes
Procedure: (§1) The inventors hypothesized that PLA2G5 impacted red blood cells because of the impact of PLA2G5 blockade on splenic red pulp macrophages and iron stores. […] Next, the inventors examined the effect of osmotic pressure on the hemolysis induced by rPLA2G5.
In vitro erythrocyte lysis assay. Mouse whole blood was spun at 1,000 g, the plasma and buffy coat were removed, and red blood cells were washed three times in Hepes-buffered saline. Subsequently, a portion of erythrocytes was incubated with 100 μM CaCl2) in Hepes-buffered saline for 3 min at 37° C. Calcium ionophore (Cayman Chemical, A23187) was added to a final concentration of 4 μM, and the cells were further incubated for 10 min at 37° C. to induce membrane phospholipid (PS) scrambling. After that, 2 mM EDTA was added to stop the reaction. […] Hemolysis was measured by determining the amount of oxyhemoglobin in the supernatant of erythrocyte suspensions after centrifugation at 4,000 g. The absorbance at 414 nm in the supernatant of erythrocyte suspensions was measured using Nanodrop (Thermoscientific) and compared to that of a hemolyzed aliquot of the same erythrocyte suspension treated with Triton X-100.

[2] = Recombinant PLA2G5 injection in naive mice; type: in vivo, mouse; settings: 10 μg rPLA2G5 intravenously
From the text: Next, the inventors hypothesized that PLA2G5 impacted red blood cells in vivo during sepsis. To test this hypothesis, the inventors measured the plasma levels of heme, a degradation product of cell-free hemoglobin, in Pla2g5^+/+ and Pla2g5^−/− mice challenged with LPS. The inventors found a significant decrease in the plasma levels of heme in Pla2g5-deficient mice compared to wild type (FIG. 7A). […] The inventors next asked if PLA2G5 would be sufficient to induce intravascular hemolysis in vivo by injecting rPLA2G5 in naïve mice.
Recombinant PLA2G5 injections. C57BL/6J mice were injected intravenously with 10 μg of recombinant PLA2G5 (Cayman chemical, 10009563).
Blood analysis. Mouse whole blood was harvested by cardiac puncture and plasma and serum were isolated using lithium heparin coated Microtainer blood collection tubes (BD 365965) and Microtainer blood collection tubes (BD 365978), respectively. For flow cytometric, bead-based immunoassays, serum was diluted and processed using the LEGENDplex Mouse Macrophage/Microglia Panel (BioLegend 740846) kit. Data were acquired on the NovoCyte flow cytometer (Acea Biosciences/Agilent) and analyzed using the LEGNEDplex software v8 (BioLegend). To measure tissue injury marker levels in sera or plasma, samples were processed by In Vivo Animal Core, University of Michigan, with the following kits for BUN (BioAssay Systems DIUR-100), ALT (Cayman Chemical 700260), and troponin-I (Life Diagnostics CTNI-1-HS) levels according to the manufacturer's instructions, or with a Vet Axcel blood chemistry analyser (Alfa Wasserman). Total plasma heme was measured with the 3,3′,5,5′ tetramethylbenzidine (TMB) peroxidase assay and oxyhemoglobin with a Nanodrop One (Thermoscientific) instrument.

[3] = test system: erythrocytes; test: Lipidomics analysis of erythrocytes incubated with rPLA2G5; type: cell-based, mouse; settings: 100 ng/mL rPLA2G5; 1 h at 37° C.
From the text: To elucidate how PLA2G5 affected RBC membranes at the molecular level during hemolysis, the inventors performed lipidomics on erythrocytes in the presence or absence of rPLA2G5 in vitro.
Lipidomics analysis of erythrocytes. The procedures for lipidomics analysis using high-performance liquid chromatography coupled with electrospray tandem mass spectrometry (LC-ESI-MS/MS) were described above. Mouse whole blood was spun at 1,000 g, the plasma and buffy coat were removed, and red blood cells were washed three times in Hepes-buffered saline. Subsequently, a portion of erythrocytes was incubated with 100 μM CaCl2) in Hepes-buffered saline for 3 min at 37° C. Calcium ionophore (Cayman Chemical, A23187) was added to a final concentration of 4 μM, and the cells were further incubated for 10 min at 37° C. to induce membrane phospholipid (PS) scrambling. After that, 2 mM EDTA was added to stop the reaction. PS-exposing or untreated erythrocytes (10^9 cells/mL) were incubated with or without 100 ng/mL of human recombinant PLA2G5 (Cayman chemical, 10009563) for 1 h at 37° C. in Hepes-buffered saline with 2 mM of calcium for the activity of PLA2G5. The samples were kept at −80° C. until the following procedures.

[4] = test system: mouse RBCs; test: In vitro erythrocyte lysis assay with recombinant PLA2G5; type: cell-based
Procedure: as §1
In vitro erythrocyte lysis assay. Mouse whole blood was spun at 1,000 g, the plasma and buffy coat were removed, and red blood cells were washed three times in Hepes-buffered saline. Subsequently, a portion of erythrocytes was incubated with 100 μM CaCl2) in Hepes-buffered saline for 3 min at 37° C. Calcium ionophore (Cayman Chemical, A23187) was added to a final concentration of 4 μM, and the cells were further incubated for 10 min at 37° C. to induce membrane phospholipid (PS) scrambling. After that, 2 mM EDTA was added to stop the reaction. In the presence or absence of 100 nM of varespladib, hypertonic solution (100 mM NaCl), or hypotonic solution (water-diluted Hepes-buffered saline), PS-exposing or untreated erythrocytes (10^9 cells/mL) were incubated with 5, 50, or 500 ng/mL of human recombinant PLA2G5 (Cayman chemical, 10009563) for 1 h at 37° C. in Hepes-buffered saline with 2 mM of calcium for the activity of PLA2G5. Hemolysis was measured by determining the amount of oxyhemoglobin in the supernatant of erythrocyte suspensions after centrifugation at 4,000 g. The absorbance at 414 nm in the supernatant of erythrocyte suspensions was measured using Nanodrop (Thermoscientific) and compared to that of a hemolyzed aliquot of the same erythrocyte suspension treated with Triton X-100.

Molecule | effect on the hemolytic effects of rPLA2G5 [1] | plasma level of heme [2] | plasma level of oxyhemoglobin [2] | serum level of ALT [2] | serum level of BUN [2] | lipids released from RBC membranes [3] | RBC lysis (cell-free oxyhemoglobin) ([4]; RBCs treated with Ca2+ and calcium ionophore, 5, 50, or 500 ng/mL rPLA2G5, 1 h at 37° C.) | hemolysis mediated by rPLA2G5 in hypertonic conditions ([4]; hypertonic solution (100 mM NaCl)) | hemolysis mediated by rPLA2G5 in hypotonic conditions ([4]; hypotonic solution (water-diluted Hepes-buffered saline))
CCc1c(C(=O)C(N)=O)c2c(OCC(=O)O)cccc2n1Cc1ccccc1 [varespladib] | the hemolytic effects of rPLA2G5 were dependent on its phospholipase activity | – | – | – | – | – | – | – | –
B1 | – | sufficient to elevate | sufficient to elevate | sufficient to elevate | sufficient to elevate | release of lysophospholipids with saturation and lower degrees of unsaturation and fatty acids | increased RBC lysis in a dose-dependent manner | inhibited hemolysis | promoted hemolysis
